Experimental data reported in US20250277200.

What was measured:
C5a = system: T1, C5a
T1 sequence: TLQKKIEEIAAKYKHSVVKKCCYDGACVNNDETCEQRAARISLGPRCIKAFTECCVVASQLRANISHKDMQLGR

Sequence of C3a (chain, as listed by the source): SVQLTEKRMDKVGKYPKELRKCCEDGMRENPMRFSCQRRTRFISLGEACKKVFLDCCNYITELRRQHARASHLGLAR
Sequence of CPN1-HSA (chain): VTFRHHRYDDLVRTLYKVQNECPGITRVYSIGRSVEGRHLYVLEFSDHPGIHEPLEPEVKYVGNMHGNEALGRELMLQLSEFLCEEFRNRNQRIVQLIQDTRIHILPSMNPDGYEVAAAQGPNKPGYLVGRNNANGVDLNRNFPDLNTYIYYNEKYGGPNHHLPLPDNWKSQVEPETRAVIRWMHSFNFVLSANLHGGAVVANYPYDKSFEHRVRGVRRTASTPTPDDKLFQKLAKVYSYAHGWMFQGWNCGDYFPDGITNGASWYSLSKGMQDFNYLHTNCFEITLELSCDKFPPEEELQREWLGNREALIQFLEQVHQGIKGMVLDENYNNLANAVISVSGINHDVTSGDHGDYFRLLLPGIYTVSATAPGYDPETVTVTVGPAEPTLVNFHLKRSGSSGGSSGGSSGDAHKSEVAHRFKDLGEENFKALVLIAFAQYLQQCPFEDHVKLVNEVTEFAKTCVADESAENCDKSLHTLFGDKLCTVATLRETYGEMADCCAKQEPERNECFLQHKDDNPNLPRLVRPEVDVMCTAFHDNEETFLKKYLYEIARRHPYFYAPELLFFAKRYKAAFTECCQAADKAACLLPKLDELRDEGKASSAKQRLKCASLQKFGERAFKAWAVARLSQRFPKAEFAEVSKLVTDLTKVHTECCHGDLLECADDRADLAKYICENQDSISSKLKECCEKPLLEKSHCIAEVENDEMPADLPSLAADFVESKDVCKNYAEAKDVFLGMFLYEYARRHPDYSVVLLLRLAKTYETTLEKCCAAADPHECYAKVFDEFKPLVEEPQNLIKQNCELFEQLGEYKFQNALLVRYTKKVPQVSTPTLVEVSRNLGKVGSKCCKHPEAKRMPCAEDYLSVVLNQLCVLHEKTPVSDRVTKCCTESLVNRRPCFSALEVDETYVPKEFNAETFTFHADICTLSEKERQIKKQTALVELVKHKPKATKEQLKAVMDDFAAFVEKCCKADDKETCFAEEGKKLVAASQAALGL

CPN1-HSA
% Cleavage (GPCR assay, purified enzyme) (C5a): 82% | % Cleavage (GPCR assay, supernatant) (C5a): 97% | % Cleavage (GPCR assay, purified enzyme) (C3a): 100% | % Cleavage (GPCR assay, supernatant) (C3a): 100% | Kcat/KM (Arg LC-MS/MS, purified enzyme) (C3a): 800000 M⁻¹ s⁻¹
